Two substances from patent US20160152684A1 can be followed below.

Assay [1] has as its target FcRn, FCGRT & B2M dimer receptor (Sino Biological Inc.). As to the kind of experiment: SPR, FcRn on CM5 chip, 100 nM analyte, RU 10 s after start of dissociation at pH 7.4.
For assay [2] the target is unchanged. Description: SPR, mean over 100-12.5 nM analyte, (RU at pH 7.4 / RU at pH 6.0) x 100. A general note: SPR reads the build-up and loss of mass on a sensor chip optically.
The target is the same in assay [3]. As to the kind of experiment: SPR, FcRn on CM5 chip, 50 nM analyte, RU 10 s after start of dissociation at pH 7.4.
The target is the same in assay [4]. As to the kind of experiment: SPR, FcRn on CM5 chip, 50 nM analyte, RU 2 s before end of pH 6.0 injection.
For assay [5] the target is unchanged. As to the kind of experiment: SPR, FcRn on CM5 chip, 25 nM analyte, RU 10 s after start of dissociation at pH 7.4.
Assay [6] shares this target. Description: SPR, FcRn on CM5 chip, 100 nM analyte, RU 2 s before end of pH 6.0 injection.
The target is the same in assay [7]. Description: SPR, 50 nM analyte, (RU at pH 7.4 / RU at pH 6.0) x 100.
The target is the same in assay [8]. As to the kind of experiment: SPR, 25 nM analyte, (RU at pH 7.4 / RU at pH 6.0) x 100.
For assay [9] the target is unchanged. Description: SPR, FcRn on CM5 chip, 25 nM analyte, RU 2 s before end of pH 6.0 injection.
For assay [10] the target is unchanged. As to the kind of experiment: SPR, 100 nM analyte, (RU at pH 7.4 / RU at pH 6.0) x 100.
The target is the same in assay [11]. As to the kind of experiment: SPR, FcRn on CM5 chip, 12.5 nM analyte, RU 2 s before end of pH 6.0 injection.
Assay [12] shares this target. Description: SPR, 12.5 nM analyte, (RU at pH 7.4 / RU at pH 6.0) x 100.
The target is the same in assay [13]. As to the kind of experiment: SPR, FcRn on CM5 chip, 12.5 nM analyte, RU 10 s after start of dissociation at pH 7.4.
Assay [14] has the same target. As to the kind of experiment: SPR (BIACORE 3000), FcRn on CM5 chip, pH 6.0, 1:1 Langmuir with drifting baseline.

FcRn, FCGRT & B2M dimer receptor (Sino Biological Inc.), sequence (P55899 24-297, chain 1 of 2): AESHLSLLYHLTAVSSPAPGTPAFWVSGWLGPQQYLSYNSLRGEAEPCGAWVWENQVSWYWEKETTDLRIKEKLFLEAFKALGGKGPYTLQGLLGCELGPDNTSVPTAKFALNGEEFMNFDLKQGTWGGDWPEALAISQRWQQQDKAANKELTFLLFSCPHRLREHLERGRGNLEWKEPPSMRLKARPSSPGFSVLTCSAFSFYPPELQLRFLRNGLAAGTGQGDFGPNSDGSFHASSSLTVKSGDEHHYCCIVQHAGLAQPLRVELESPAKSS
FcRn, FCGRT & B2M dimer receptor (Sino Biological Inc.), sequence (P61769 21-119, chain 2 of 2, further chain): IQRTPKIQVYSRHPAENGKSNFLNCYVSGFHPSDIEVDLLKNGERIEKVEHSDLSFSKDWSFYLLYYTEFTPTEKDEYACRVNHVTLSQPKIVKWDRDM
Human growth hormone-immunoglobulin Fc fragment conjugate, sequence (P01241 27-217): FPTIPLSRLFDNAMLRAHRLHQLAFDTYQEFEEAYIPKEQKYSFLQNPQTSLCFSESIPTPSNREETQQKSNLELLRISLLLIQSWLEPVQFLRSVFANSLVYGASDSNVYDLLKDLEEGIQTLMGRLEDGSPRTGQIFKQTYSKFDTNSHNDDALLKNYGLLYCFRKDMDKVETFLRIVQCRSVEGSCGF

With “Human growth hormone-immunoglobulin Fc fragment conjugate (from UniProt P01241 27-217)”, the Binding amount (RU) at pH 7.4 in assay [1] is 8.2 RU; in assay [3], 7.7 RU; in [5], 8.3 RU; in [13], 8.1 RU. Further, the Average binding ratio (%) in assay [2] is 6.6%. Besides, the Binding amount (RU) at pH 6.0 in assay [4] is 153 RU; in assay [6] it was 206 RU; in [9] it was 112 RU; in assay [11], 82.9 RU. Besides, the Binding ratio (%) in assay [7] was found to be 5.1%; in [8], 7.4%; in assay [10], 4%; in [12], 9.8%. Further, the equilibrium dissociation constant (Kd) (commonly a measure of binding affinity in units of concentration) in assay [14] was 26.8 nM. Further, in assay [14], the koff (usually a measure of how fast the partners let go of each other) stood at 0.0036 s⁻¹. Also, in [14], the kon (usually the rate constant with which the complex forms) was 120000 M⁻¹ s⁻¹.

For “Interferon-immunoglobulin Fc fragment conjugate (from UniProt P01563 24-188)”, the Binding amount (RU) at pH 7.4 in assay [1] stood at 6.4 RU; in [3], 6.7 RU; in assay [5], 6.7 RU; in assay [13] it was 6.4 RU. Moreover, the Average binding ratio (%) in assay [2] was found to be 5%. The Binding amount (RU) at pH 6.0 in [4] worked out at 157 RU; in assay [6], 197 RU; in assay [9] it was 120 RU; in [11] it was 91.3 RU. Besides, the Binding ratio (%) in assay [7] was 4.3%; in assay [8], 5.6%; in assay [10], 3.2%; in assay [12], 7%. Moreover, the Kd in assay [14] was 30 nM. This substance returned a koff in assay [14] of 0.0093 s⁻¹. The same substance showed an on-rate (kon) in assay [14] of 300000 M⁻¹ s⁻¹.
